Assay results: patent publication US20240390459A1, “ANTI-DEPRESSION AND ANTI-ANXIETY APPLICATION OF POLYPEPTIDE AND COMPLEX” (SHENZHEN CHENYANG BIOLOGICAL TECHNOLOGY CO., LTD, priority 2021, published 2024)
Ends that are not written are not given here.

Legend:
[1] = biological target: T1, D1R from mouse hippocampus tissue (Mus musculus, UniProt Q61616); assay: GST pulldown analysis of mouse hippocampus tissue extract with Western blot; type: binding; conditions: 15 μg GST fusion protein, 500 μg mouse hippocampus tissue extract, overnight 4° C.
T1 construct: from tissue; host or cells: mouse hippocampus tissue extract
T1 sequence (Q61616 whole entry, the tested form may be a part): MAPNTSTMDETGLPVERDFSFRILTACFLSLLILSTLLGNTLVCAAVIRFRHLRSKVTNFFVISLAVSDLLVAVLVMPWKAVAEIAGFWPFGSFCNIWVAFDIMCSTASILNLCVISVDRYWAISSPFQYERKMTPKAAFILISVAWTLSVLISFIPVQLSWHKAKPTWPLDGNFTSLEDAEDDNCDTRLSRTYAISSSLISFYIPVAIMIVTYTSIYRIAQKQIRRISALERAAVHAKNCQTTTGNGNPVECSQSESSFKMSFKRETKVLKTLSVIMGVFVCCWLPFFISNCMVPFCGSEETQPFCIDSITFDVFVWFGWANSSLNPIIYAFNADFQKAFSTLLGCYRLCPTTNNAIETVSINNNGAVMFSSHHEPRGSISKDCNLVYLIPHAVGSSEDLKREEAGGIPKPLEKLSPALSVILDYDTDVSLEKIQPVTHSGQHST
Source text: In order to confirm the interbinding site of the 5-HT2AR/D1R complex, the 5-HT2AR full-length cDNA clone (Genbank Accession No.: NM_001378924) was first amplified to obtain cDNA fragments of the CT region of 5-HT2AR (K385-V471) and the third intracellular loop (IL3) region of 5-HT2AR (F255-V324). These fragments were subcloned to the BamH1/EcoR1 or BamH1/Xho1 site of a pGEX-4T-3 plasmid (YouBio no: VT1255). The initial methionine residue and termination codon were incorporated as appropriate. All constructs were resequenced to confirm that splicing and fusion was achieved appropriately. The GST fusion protein containing the third intracellular loop (IL3) of 5-HT2AR (GST-5HT2AR-IL3) and the GST fusion protein containing the CT region of 5-HT2AR (GST-5HT2AR-CT) were expressed from E. coli BL21 viable cells (AlpalifeBio, no: KTSM104L) and purified from bacterial lysate solution.
500 μg of dissolved mouse hippocampus tissue extract was diluted with 1×PBS/1% Triton X-100 and then incubated overnight with 20 μl protein GST resin saturated GST protein or 15 μg GST fusion protein at 4° C. Beads were washed 1-8 times with 1×PBS/1% Triton X-100. Binding proteins were eluted with 2×loading buffer, separated by SDS-PAGE, and underwent Western blot with respective antibodies thereof.
According to the method in the present Example, a pulldown analysis was performed using a GST fusion protein containing a KV region of 5-HT2AR (GST-5HT2AR-KV), a GST fusion protein containing a NN region of 5-HT2AR (GST-5HT2AR-NN), and a GST fusion protein containing a DV region of 5-HT2AR (GST-5HT2AR-DV), and the results of Western blot were shown in FIG. 4 B.
According to the method in the present Example, a pulldown analysis was performed using a GST fusion protein containing a DA region of 5-HT2AR (GST-5HT2AR-DA), and a GST fusion protein containing a SV region of 5-HT2AR (GST-5HT2AR-SV), and the results of Western blot were shown in FIG. 4 C.

[2] = biological target: T2, 5-HT2AR/D1R complex (Mus musculus, UniProt Q61616); assay: Co-immunoprecipitation of hippocampus tissue from polypeptide-treated mice; type: in vivo; conditions: single intraperitoneal administration 3 nmol/g, 1 hour after treatment, control TAT only
T2 construct: Co-immunoprecipitation was performed using protein samples (100-500 μg protein) from mouse hippocampus tissue; from tissue; host or cells: hippocampus tissue of treated mice (naive, CRS, CMS, CSDS)
T2 sequence (Q61616 whole entry, one chain of several): as the sequence (Q61616 whole entry, the tested form may be a part) above
Method: (§1) Co-immunoprecipitation was performed using protein samples (100-500 μg protein) from mouse hippocampus tissue. Precipitation was performed using a mouse antibody against 5-HT2AR (SantaCruz Biotechnology, sc-166775) and 25 μl protein A/G plus agarose bead slurry (santaCruz Biotechnology, sc-2001).
(§2) Western blot analysis was carried out after precipitation: the denatured protein was separated on 8% SDS-PAGE gel, then transferred to cellulose nitrate membrane and blocked with TBST; then incubated with mouse antibodies against D1R (SantaCruz Biotechnology, sc-33660) and D2R (SantaCruz Biotechnology, sc-5303) overnight at 4° C.; finally, treated with HRP-coupled secondary antibody for 1 hour, SuperSignal ECL Chemiluminescence Kit was used to detect the signal, and Image Lab software was used to analyze the density of the bands.
Mice were treated with TAT-5HT2AR-SV, TAT-5HT2AR-DV and TAT-5HT2AR-CT, and mice treated with TAT only were used as control (all treated by single intraperitoneal administration, 3 nmol/g). 1 hour after the treatment, the mice used were analyzed according to the co-immunoprecipitation method in Example 1, and the results are shown in FIG. 5.

[3] = tested on: 5-HT2AR and D1R; assay: Direct Western blot of hippocampus tissue from polypeptide-treated mice; type: in vivo; conditions: mouse hippocampus tissue, single intraperitoneal 3 nmol/g, vs TAT
Method: as §2
In addition, the hippocampus tissues of TAT-5HT2AR-SV and TAT-treated mice were directly analyzed by Western blot.

[4] = biological target: T2, 5-HT2AR/D1R complex; assay: Co-immunoprecipitation of hippocampus tissue from polypeptide-treated CRS, CMS and CSDS mice; type: in vivo; conditions: hippocampus tissue of stressed CRS, single intraperitoneal 3 nmol/g, vs TAT
Method: as §1
as §2, with “bands. […]” for “bands.”
The treated CRS, CMS and CSDS mice of Example 6 (TAT-5HT2AR-SV, TAT-5HT2AR-DV, TAT-5HT2AR-CT and TAT) were analyzed according to the co-immunoprecipitation method of Example 1, and the Western blot results were shown in FIG. 9, respectively.

[5] = tested on: D1R and 5-HT2AR; assay: Direct Western blot of hippocampus tissue from treated stressed mice; type: in vivo, mouse; conditions: CRS, CMS and CSDS mice
Method: as §2
To further evaluate the ability of the polypeptide as an antidepressant, CRS, CMS and CSDS mouse models were constructed according to the method described in Example 2, respectively; 1 hour after construction, mouse models were treated with 10 μM TAT-5HT2AR-SV, TAT-5HT2AR-DV, TAT-5HT2AR-CT or TAT respectively (all treated by single intraperitoneal administration, 3 nmol/g); then FST and TST were performed on CRS, and FST, TST and sucrose preference test (SPT) were performed on CMS and CSDS mice respectively.
Further, the hippocampus tissue of treated CRS mice was directly analyzed by Western blot to investigate the expression levels of D1R and 5-HT2AR, and the results are shown in FIG. 10.
In addition, CRS, CMS and CSDS mice treated with TAT-5HT2AR-DV or TAT-5HT2AR-CT were tested respectively.

[6] = tested on: mice; assay: OFT for residence time in central area; type: in vivo, mouse; conditions: single intraperitoneal 3 nmol/g, 1 hour after treatment, 5 min, vs TAT
Method: (§3) To evaluate the antianxiety-like effect of the polypeptide of the present invention, mice treated with TAT-5HT2AR-SV, TAT-5HT2AR-DV, TAT-5HT2AR-CT (all treated by single intraperitoneal administration, 3 nmol/g) were subjected to open field test (OFT) for measuring residence time in central area and elevated plus maze test (EPM) 1 hour after treatment, with TAT-treated mice as control. Methods for the tests are as follows:
OFT (for measuring the residence time in central area): open bottom surface was divided into 25 equal-area grids, with the middle 9 grids as the central area. 1 hour after treated with the polypeptide, mice were placed in the central area and recorded for 5 min, and the residence time of mice in the central area was recorded.

[7] = tested on: mice; assay: Elevated plus maze test (EPM); type: in vivo, mouse; conditions: single intraperitoneal 3 nmol/g, 1 hour after treatment, 5 min, vs TAT
Method: as §3
EPM: consists of two open arms (25 cm×8 cm) and two closed arms (25 cm×8 cm), with the intersection as the central area (8 cm×8 cm), which is 40 cm high from the ground. 1 hour after treated with the polypeptide, mice were placed in the central area facing the open arm, and were recorded for their free activities for 5 min. After each animal was tested, the device was wiped with 70% alcohol. The residence time at the open arm, the residence time at the closed arm, and the total movement distance of mice were recorded.

[8] = biological target: T3, 5-HT2A receptor (5-HT2AR), endogenous, from mouse hippocampus tissue (mouse, UniProt P35363 1-471); assay: co-immunoprecipitation from mouse hippocampus tissue with anti-5-HT2AR antibody, Western blot for D2R
T3 construct: Native protein in a tissue lysate, precipitated with a mouse anti-5-HT2AR antibody (sc-166775)
T3 sequence (P35363 whole entry): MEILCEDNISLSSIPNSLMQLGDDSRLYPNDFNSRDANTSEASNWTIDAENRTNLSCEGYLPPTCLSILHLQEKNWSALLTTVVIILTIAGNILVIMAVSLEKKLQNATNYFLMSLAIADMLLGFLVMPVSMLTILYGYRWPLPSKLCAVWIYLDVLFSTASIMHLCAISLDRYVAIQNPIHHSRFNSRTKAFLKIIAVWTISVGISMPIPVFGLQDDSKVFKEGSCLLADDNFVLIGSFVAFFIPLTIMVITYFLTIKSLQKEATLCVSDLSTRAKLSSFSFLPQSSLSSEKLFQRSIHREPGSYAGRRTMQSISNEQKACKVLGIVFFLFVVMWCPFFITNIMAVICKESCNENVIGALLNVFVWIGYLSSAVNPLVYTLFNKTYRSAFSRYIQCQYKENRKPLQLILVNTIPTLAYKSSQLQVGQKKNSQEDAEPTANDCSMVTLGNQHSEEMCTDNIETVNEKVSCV

GST-5HT2AR-DV: GST fusion protein containing a DV region of 5-HT2AR (D442-V471) (DCSMVALGKQHSEEASKDNSDGVNEKVSCV; not fully specified (N-terminus); cysteine pairing not given here; also: GST fusion protein)
pulldown of / affinity to D1R [1]: can pulldown DIR

GST-5HT2AR-SV: GST fusion protein containing a SV region of 5-HT2AR (S457-V471) (SKDNSDGVNEKVSCV; not fully specified (N-terminus); also: GST fusion protein)
pulldown of / affinity to D1R [1]: has an affinity to D1R

TAT-5HT2AR-DV: DV region (D442-V471) of 5-HT2AR fused with TAT (DCSMVALGKQHSEEASKDNSDGVNEKVSCV; cysteine pairing not given here; also: fused with TAT peptide at C-terminal region; UniProt P28223 442-471, looked up, fragment)
interaction of 5-HT2AR/D1R (co-immunoprecipitation) [2]: successfully destroyed the interaction of 5-HT2AR/D1R | expression of 5-HT2AR and D1R [3]: did not cause a significant change | interaction between 5-HT2AR and D1R (co-immunoprecipitation) [4]: significantly reduced the interaction between 5-HT2AR and D1R | D1R and 5-HT2AR levels [5]: did not cause a significant change | OFT residence time in the central region [6]: significantly increased the residence time | EPM residence time at the closed arm [7]: decreased residence time at the closed arm | EPM residence time at the open arm [7]: significantly increased residence time at the open arm

B1: TAT-5HT2AR-CT: CT region (K385-V471) of 5-HT2AR fused with TAT (peptide, UniProt P28223 385-471, looked up, fragment)
chain: KTYRSAFSRYIQCQYKENKKPLQLILVNTIPALAYKSSQLQMGQKKNSKQDAKTTDNDCSMVALGKQHSEEASKDNSDGVNEKVSCV
modifications: C-terminal region fused with TAT peptide
notes: CT region (K385-V471) of 5-HT2AR fused with TAT
interaction of 5-HT2AR/D1R (co-immunoprecipitation) [2]: successfully destroyed the interaction of 5-HT2AR/D1R | expression of 5-HT2AR and D1R [3]: did not cause a significant change | interaction between 5-HT2AR and D1R (co-immunoprecipitation) [4]: significantly reduced the interaction between 5-HT2AR and D1R | D1R and 5-HT2AR levels [5]: did not cause a significant change | OFT residence time in the central region [6]: significantly increased the residence time | EPM residence time at the closed arm [7]: decreased residence time at the closed arm | EPM residence time at the open arm [7]: significantly increased residence time at the open arm

B2: GST-5HT2AR-CT: GST fusion protein containing the CT region of 5-HT2AR (K385-V471) (protein)
chain: KTYRSAFSRYIQCQYKENKKPLQLILVNTIPALAYKSSQLQMGQKKNSKQDAKTTDNDCSMVALGKQHSEEASKDNSDGVNEKVSCV
modifications: left off: a dimerising Fc or GST
pulldown of / affinity to D1R [1]: can pulldown DIR

B3: Dopamine D2 receptor (D2R), endogenous, from mouse hippocampus tissue (receptor, UniProt P61168 1-444, looked up)
chain: MDPLNLSWYDDDLERQNWSRPFNGSEGKPDRPHYNYYAMLLTLLIFIIVFGNVLVCMAVSREKALQTTTNYLIVSLAVADLLVATLVMPWVVYLEVVGEWKFSRIHCDIFVTLDVMMCTASILNLCAISIDRYTAVAMPMLYNTRYSSKRRVTVMIAIVWVLSFTISCPLLFGLNNTDQNECIIANPAFVVYSSIVSFYVPFIVTLLVYIKIYIVLRKRRKRVNTKRSSRAFRANLKTPLKGNCTHPEDMKLCTVIMKSNGSFPVNRRRMDAARRAQELEMEMLSSTSPPERTRYSPIPPSHHQLTLPDPSHHGLHSNPDSPAKPEKNGHAKIVNPRIAKFFEIQTMPNGKTRTSLKTMSRRKLSQQKEKKATQMLAIVLGVFIICWLPFFITHILNIHCDCNIPPVLYSAFTWLGYVNSAVNPIIYTTFNIEFRKAFMKILHC
notes: Native protein in a tissue lysate, detected by Western blot with sc-5303
binding result [8]: no binding
